Measurements as given in PMC7165476 (Proceedings of the National Academy of Sciences of the …, 2020).
Where two headings read alike, the source gives them in different places.

T1: Transportin-3 (TNPO3), recombinant full length (human, UniProt Q9Y5L0 1-923)
T1 sequence (looked up): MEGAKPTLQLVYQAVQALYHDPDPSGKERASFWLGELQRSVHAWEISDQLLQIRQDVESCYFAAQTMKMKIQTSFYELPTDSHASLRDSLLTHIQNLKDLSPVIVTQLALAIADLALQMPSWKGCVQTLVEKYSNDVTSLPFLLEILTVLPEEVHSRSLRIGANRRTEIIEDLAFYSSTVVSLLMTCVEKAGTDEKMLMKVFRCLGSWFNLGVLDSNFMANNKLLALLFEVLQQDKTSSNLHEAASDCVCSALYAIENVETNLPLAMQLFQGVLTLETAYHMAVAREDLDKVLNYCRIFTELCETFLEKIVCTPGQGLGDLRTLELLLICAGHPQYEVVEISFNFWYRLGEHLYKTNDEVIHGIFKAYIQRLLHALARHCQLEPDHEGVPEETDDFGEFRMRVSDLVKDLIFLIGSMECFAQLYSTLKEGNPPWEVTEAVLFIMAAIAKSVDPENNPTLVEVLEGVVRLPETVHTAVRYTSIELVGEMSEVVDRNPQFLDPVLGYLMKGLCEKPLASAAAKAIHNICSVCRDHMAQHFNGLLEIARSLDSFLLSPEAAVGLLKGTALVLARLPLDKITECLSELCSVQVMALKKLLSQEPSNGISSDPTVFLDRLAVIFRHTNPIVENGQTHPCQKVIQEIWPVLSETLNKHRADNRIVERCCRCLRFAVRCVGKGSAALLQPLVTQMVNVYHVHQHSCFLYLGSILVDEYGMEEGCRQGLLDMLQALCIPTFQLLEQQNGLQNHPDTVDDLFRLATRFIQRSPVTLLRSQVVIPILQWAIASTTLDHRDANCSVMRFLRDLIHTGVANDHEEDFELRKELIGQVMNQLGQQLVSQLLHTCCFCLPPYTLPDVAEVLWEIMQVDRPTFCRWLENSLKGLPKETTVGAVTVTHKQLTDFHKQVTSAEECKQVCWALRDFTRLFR

T2: CIRBP RGG (CIRBPRGG) (Homo sapiens, UniProt Q14011 68-137)
T2 sequence: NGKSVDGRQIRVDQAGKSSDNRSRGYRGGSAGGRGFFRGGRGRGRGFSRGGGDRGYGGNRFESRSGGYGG

B1: Cold-inducible RNA-binding protein (CIRBP), full length, untagged (natural protein, human, UniProt Q14011 1-172, looked up)
chain: MASDEGKLFVGGLSFDTNEQSLEQVFSKYGQISEVVVVKDRETQRSRGFGFVTFENIDDAKDAMMAMNGKSVDGRQIRVDQAGKSSDNRSRGYRGGSAGGRGFFRGGRGRGRGFSRGGGDRGYGGNRFESRSGGYGGSRDYYSSRSQSGGYSDRSSGGSYRDSYDSYATHNE

Columns and labels:
[1] = biological target: TNPO1 lacking the disordered acidic loop (TNPO1^Δloop) (human) (UniProt Q92973); experiment: ITC
Sequence of TNPO1 lacking the disordered acidic loop (TNPO1^Δloop) (human) (Q92973 whole entry, stated change not applied): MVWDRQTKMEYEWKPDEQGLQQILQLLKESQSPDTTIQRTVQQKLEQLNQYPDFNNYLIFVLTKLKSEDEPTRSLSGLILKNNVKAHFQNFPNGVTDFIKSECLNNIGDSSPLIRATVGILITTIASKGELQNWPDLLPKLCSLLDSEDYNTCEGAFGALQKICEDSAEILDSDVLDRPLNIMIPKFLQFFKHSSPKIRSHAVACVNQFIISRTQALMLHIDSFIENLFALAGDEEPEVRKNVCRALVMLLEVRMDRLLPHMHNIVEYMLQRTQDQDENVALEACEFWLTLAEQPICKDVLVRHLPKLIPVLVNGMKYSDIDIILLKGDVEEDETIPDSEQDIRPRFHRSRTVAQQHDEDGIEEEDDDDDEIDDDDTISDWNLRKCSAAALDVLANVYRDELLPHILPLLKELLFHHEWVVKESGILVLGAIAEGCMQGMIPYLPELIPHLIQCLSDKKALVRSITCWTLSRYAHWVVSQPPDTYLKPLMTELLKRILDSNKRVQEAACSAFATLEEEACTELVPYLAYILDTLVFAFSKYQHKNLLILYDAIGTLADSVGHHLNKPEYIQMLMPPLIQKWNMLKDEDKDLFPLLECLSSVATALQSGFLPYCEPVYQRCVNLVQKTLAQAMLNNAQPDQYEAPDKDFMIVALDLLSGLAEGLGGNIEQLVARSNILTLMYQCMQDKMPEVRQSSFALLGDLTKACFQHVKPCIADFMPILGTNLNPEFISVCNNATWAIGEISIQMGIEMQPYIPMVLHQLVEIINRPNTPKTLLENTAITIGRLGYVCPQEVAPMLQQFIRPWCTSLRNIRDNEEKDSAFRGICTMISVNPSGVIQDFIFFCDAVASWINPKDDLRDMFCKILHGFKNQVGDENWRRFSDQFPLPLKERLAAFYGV

[2] = biological target: Transportin-1 (TNPO1), recombinant full length (human) (UniProt Q92973); experiment: ITC
Sequence of Transportin-1 (TNPO1), recombinant full length (human) (Q92973 whole entry): as the sequence (Q92973 whole entry, stated change not applied) above

[3] = biological target: Transportin-3 (TNPO3), recombinant full length (human) (UniProt Q9Y5L0); experiment: ITC
[4] = biological target: TNPO1 acidic loop (TNPO1^loop) (human); experiment: NMR titration
Sequence of TNPO1 acidic loop (TNPO1^loop) (human) (Q92973 whole entry): as the sequence (Q92973 whole entry, stated change not applied) above

[5] = biological target: Transportin-3 (TNPO3), recombinant full length (human) (UniProt Q9Y5L0); experiment: ITC; remark: listed apart in the source
[6] = biological target: T1, Transportin-3 (TNPO3), recombinant full …; experiment: ITC
CIRBP RGG (CIRBPRGG) = biological target: T2, CIRBP RGG (CIRBPRGG); experiment: NMR

Row | Molecule | Kd [1] [nM] | dH [1] [kcal⋅mol^−1] | Kd [2] [nM] | dH [2] [kcal⋅mol^−1] | Kd [3] [nM] | dH [3] [kcal⋅mol^−1] | also measured
1 | CIRBP C-terminal RSY-rich region (CIRBP^RSY) (domain or fragment) | 8080 | -19 | 7800 | -10 | 114 | -34.9 | –
2 | CIRBP RG/RGG-rich region (CIRBP^RGG) (domain or fragment) | 364 | -22.3 | 75 | -11.3 | 584 | -27 | Kd [4]: 57000 nM; Kd [5]: 589 nM
3 | Cold-inducible RNA-binding protein (CIRBP), full length, untagged (from UniProt Q14011 1-172) (natural protein) | – | – | 741 | -21 | – | – | –
4 | PRMT1-methylated CIRBP RG/RGG region (meCIRBP^RGG) (domain or fragment) | – | – | – | – | 3300 | -23 | –
5 | PY-NLS of FUS (FUS^PY-NLS) (domain or fragment) | 62 | -20.6 | 48 | -21.9 | – | – | –
6 | B1 | – | – | – | – | – | – | Kd [6]: 289 nM; dH [6]: -58.6 kcal⋅mol^−1
7 | UGUGUGUGUGUGUGUGUGUGUGUG (ssRNA) [(UG)12 RNA] | – | – | – | – | – | – | binding result (CIRBP RGG (CIRBPRGG)): binds
